Assay [1] concerns the target T1, cynomolgus (Macaca fascicularis) ST2L extracellular domain with C-terminal His6 tag (Macaca fascicularis (cynomolgus), UniProt Q01638 19-321 (human entry)).
T1 construct: also called cyno ST2L-ECD; cynoST2L-ECD
T1 chain: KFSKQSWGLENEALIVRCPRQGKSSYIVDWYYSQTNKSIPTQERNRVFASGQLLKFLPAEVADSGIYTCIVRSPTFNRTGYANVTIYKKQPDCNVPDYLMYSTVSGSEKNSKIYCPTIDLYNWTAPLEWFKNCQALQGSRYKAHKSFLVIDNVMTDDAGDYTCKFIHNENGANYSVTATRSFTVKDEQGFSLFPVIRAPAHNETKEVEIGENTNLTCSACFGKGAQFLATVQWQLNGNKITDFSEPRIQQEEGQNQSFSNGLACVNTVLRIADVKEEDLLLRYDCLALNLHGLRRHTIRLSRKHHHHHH
The experiment in a line: ProteOn SPR, mAb captured, ST2L-ECD in solution. The procedure: (§1) The affinities were analyzed by ProteOn. The experiments were performed at 25° C. using ProteOn's PBS-T-E buffer (PBS, 0.005% P20 and 3 mM EDTA) as running buffer. […] Mab capture was followed by injection of ST2L-ECD from 0.024-15 nM (5-fold dilutions) for 4 min (200 μL at 50 μL/min). The dissociation was monitored for 30 minutes for all reaction. Regeneration was performed using two 15 sec pulses of 10 mM glycine pH1.5. The data was fitted to a 1:1 with baseline drift model.
(§2) Association rates for the samples are fast, the langmuir with mass transfer model was used for curve fitting and estimation of Affinity. All of the samples had faster off rates than the parental clone and control Mab. The difference in off rate was the primary contributor to the lower affinity of the HFA variants when compared to the parent antibody.

Assay [2] concerns the target T2, human ST2L extracellular domain with C-terminal His6 tag (human, UniProt Q01638 19-328).
T2 construct: also called huST2L-ECD; ST2L-ECD
T2 sequence: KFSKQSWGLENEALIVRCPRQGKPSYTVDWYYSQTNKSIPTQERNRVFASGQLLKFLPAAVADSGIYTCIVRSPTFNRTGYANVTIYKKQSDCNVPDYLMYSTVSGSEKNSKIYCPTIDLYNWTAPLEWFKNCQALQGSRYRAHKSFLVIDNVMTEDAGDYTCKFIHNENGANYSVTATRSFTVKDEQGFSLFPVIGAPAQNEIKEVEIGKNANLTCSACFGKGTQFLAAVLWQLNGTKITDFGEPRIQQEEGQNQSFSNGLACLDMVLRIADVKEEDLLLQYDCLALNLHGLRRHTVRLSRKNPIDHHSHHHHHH
The experiment in a line: ProteOn SPR, mAb captured, ST2L-ECD in solution. How it is done: as §1, §2

Where a chain is given by its changes, count along the chain named.

B1: STLM203 (antibody, V domains shown)
VH: EVQLVQSGAEVKKPGATVKISCKVSAFNIKDDYMHWVQQAPGKGLEWMGRIDPAIGNTEYAEKFQGRVTITADTSTDTAYMELSSLRSEDTAVYYCATGDFYAMDYWGQGTLVTVSS
VL: DIQMTQSPSSLSASVGDRVTITCITNTDIDDVIHWYQQKPGKAPKLLIYEGNTLRPGVPSRFSGSGSGTDFTLTISSLQPEDFATYYCLQSDNMLTFGQGTKLEIK
notes: C2494 HFA mAb: VH STLH194 + VL STLL274 (O12)
Turning to B1, in assay [1], the Kd was 0.111 nM, the koff was 0.00656 s⁻¹ and the kon was 5.88e+07 M⁻¹ s⁻¹. In assay [2], this molecule gave a Kd of 0.0473 nM, a koff of 0.000967 s⁻¹ and a kon of 2.04e+07 M⁻¹ s⁻¹.

B2: STLM193 (antibody, V domains shown)
VH: B1 VH with E1Q, T17S, I20V, Q38R, E62P, G66D, I70M, A72E
VL: B1 VL
notes: C2494 HFA mAb: VH STLH195 + VL STLL274 (O12)
As for B2, in assay [1], the affinity, expressed as Kd, was 0.932 nM; the koff is 0.0932 s⁻¹; the kon came to 1e+08 M⁻¹ s⁻¹. In assay [2], this molecule gave a Kd of 0.267 nM, a koff of 0.0127 s⁻¹ and a kon of 4.77e+07 M⁻¹ s⁻¹.

B3: STLM191 (antibody, V domains shown)
VH: B1 VH with E1Q, T17S, I20V, Q38R, E62P, G66D, I70M, A72E
VL: B1 VL with S10T, D70E, E81D
notes: C2494 HFA mAb: VH STLH195 + VL STLL276 (L12)
Take B3: in assay [1], the Kd was 0.666 nM, the koff came out at 0.0666 s⁻¹ and the kon is 1e+08 M⁻¹ s⁻¹. In assay [2], this molecule came in with a Kd of 0.292 nM, a koff of 0.0247 s⁻¹ and a kon of 8.46e+07 M⁻¹ s⁻¹.

B4: STLM194 (antibody, V domains shown)
VH: B1 VH with E1Q, T17S, I20V, Q38R, E62P, G66D, I70M, A72E
VL: B1 VL with A43V, F83V
notes: C2494 HFA mAb: VH STLH195 + VL STLL273 (A20)
Turning to B4, in assay [1], binding was put at a Kd of 1.9 nM, the koff was 0.19 s⁻¹ and the kon came to 1e+08 M⁻¹ s⁻¹. Besides, in assay [2], the Kd worked out at 0.703 nM, the koff was determined as 0.0703 s⁻¹ and the kon was 1e+08 M⁻¹ s⁻¹.

B5: STLM197 (antibody, V domains shown)
VH: B1 VH
VL: B1 VL with M94L
notes: C2494 HFA mAb: VH STLH194 (IGHV1-f*01) + VL STLL280 (O12b)
In assay [1], B5 returned a Kd of 0.232 nM, a koff of 0.00688 s⁻¹ and a kon of 2.97e+07 M⁻¹ s⁻¹. For the same molecule, in assay [2], binding was characterised by a dissociation constant (Kd) of 0.0885 nM, the koff stood at 0.00162 s⁻¹ and the kon came out at 1.83e+07 M⁻¹ s⁻¹.

B6: STLM187 (antibody, V domains shown)
VH: B1 VH with E1Q, T17S, I20V, Q38R, E62P, G66D, I70M, A72E
VL: B1 VL with M94L
notes: C2494 HFA mAb: VH STLH195 (IGHV1-24*01) + VL STLL280 (O12b)
Turning to B6, in assay [1], the affinity, expressed as Kd, was 1.1 nM; the koff was 0.11 s⁻¹; the kon turned out to be 1e+08 M⁻¹ s⁻¹. In addition, in assay [2], binding was put at a Kd of 0.473 nM, the koff was determined as 0.0159 s⁻¹ and the kon is 3.37e+07 M⁻¹ s⁻¹.

B7: STLM192 (antibody, V domains shown)
VH: B1 VH with E1Q, T17S, I20V, Q38R, E62P, G66D, I70M, A72E
VL: B1 VL with L11V
notes: C2494 HFA mAb: VH STLH195 + VL STLL275 (L5)
Regarding B7, in assay [1], the Kd came to 0.999 nM, the off-rate (koff) was determined as 0.0999 s⁻¹ and the kon came to 1e+08 M⁻¹ s⁻¹. Also, in assay [2], binding was put at a Kd of 0.42 nM, the koff is 0.00885 s⁻¹ and the kon was determined as 2.11e+07 M⁻¹ s⁻¹.

B8: STLM195 (antibody, V domains shown)
VH: B1 VH with E1Q, T17S, I20V, Q38R, E62P, G66D, I70M, A72E
VL: B1 VL with L73F, F83I
notes: C2494 HFA mAb: VH STLH195 + VL STLL272 (O18)
For the molecule B8, in assay [1], the Kd amounted to 0.719 nM, the koff came to 0.0719 s⁻¹ and the kon was 1e+08 M⁻¹ s⁻¹. Besides, in assay [2], the Kd is 0.271 nM, the koff is 0.00673 s⁻¹ and the kon came to 2.49e+07 M⁻¹ s⁻¹.

B9: STLM190 (antibody, V domains shown)
VH: B1 VH with E1Q, T17S, I20V, Q38R, E62P, G66D, I70M, A72E
VL: B1 VL with M4L, S10F, D70E
notes: C2494 HFA mAb: VH STLH195 + VL STLL277 (L8)
With B9, in assay [1], binding was put at a Kd of 1.02 nM, the koff is 0.102 s⁻¹ and the kon stood at 1e+08 M⁻¹ s⁻¹. In assay [2], this molecule returned a Kd of 0.534 nM, a koff of 0.0534 s⁻¹ and a kon of 1e+08 M⁻¹ s⁻¹.

For orientation: Kd means the free concentration of one partner at which half of the binding sites on the other are occupied at equilibrium, for simple one-to-one binding. A high value points to a looser complex. As usually defined, the koff is a measure of how fast the partners let go of each other. A lower koff goes with a long-lived complex. One may read the kon as the rate constant with which the complex forms.

The values above are taken from patent US20170066831A1 (Janssen / Centocor, published 2017).
